Results: the Immune Epitope Database (IEDB)

Experiments:
Test in all cases: IEDB peptide-MHC binding, purified MHC/competitive/radioactivity; filed as Kd, often an IC50 or EC50 that approximates it; ≥ and ≤ were set here for values at or beyond the usual limits of such assays
HLA-A*02:02 = target: HLA-A*02:02
HLA-A*02:03 = target: HLA-A*02:03
HLA-A*02:06 = target: HLA-A*02:06
[1] = source organism: Mammarenavirus brazilense
[2] = source organism: Vaccinia virus WR
[3] = source organism: SARS coronavirus Tor2
[4] = source organism: Mammarenavirus machupoense

Question: Which results are given for GLLEWIFRA?
Answer: Kd (HLA-A*02:02; [1]): 21.9 nM; Kd (HLA-A*02:03; [1]): 225 nM; Kd (HLA-A*02:06; [1]): 7.13 nM

Question: How did the Kd (HLA-A*02:02; [2]) turn out when HTYHLENDKI was run?
Answer: 1790 nM

Question: And the Kd (HLA-A*02:03; [2])?
Answer: 13700 nM

Question: What about the Kd (HLA-A*02:06; [2]) of the same sequence?
Answer: 1990 nM

Question: Which Kd (HLA-A*02:02; [2]) does the source give for IAEYIAGLKI here?
Answer: ≥ 28600 nM

Question: What about the Kd (HLA-A*02:03; [2]) of the same sequence?
Answer: ≥ 23000 nM

Question: And the Kd (HLA-A*02:06; [2])?
Answer: 10200 nM

Question: How did the Kd (HLA-A*02:02; [2]) turn out when IASILSLET was run?
Answer: 3670 nM

Question: And the Kd (HLA-A*02:03; [2])?
Answer: 7480 nM

Question: And the Kd (HLA-A*02:06; [2])?
Answer: 318 nM

Question: Which results are given for IAVFDSKLI?
Answer: Kd (HLA-A*02:02; [2]): 7850 nM; Kd (HLA-A*02:03; [2]): 11900 nM; Kd (HLA-A*02:06; [2]): 11900 nM

Question: For IIELPYVGDT, which Kd (HLA-A*02:02; [2]) is on record?
Answer: 13700 nM

Question: What about the Kd (HLA-A*02:03; [2]) of the same sequence?
Answer: 4420 nM

Question: And the Kd (HLA-A*02:06; [2])?
Answer: 16900 nM

Question: What does the source list for IITILQDIV?
Answer: Kd (HLA-A*02:02; [2]): 827 nM; Kd (HLA-A*02:03; [2]): 666 nM; Kd (HLA-A*02:06; [2]): 658 nM

Question: Which results are given for ILFQNNDINA?
Answer: Kd (HLA-A*02:02; [2]): 23.3 nM; Kd (HLA-A*02:03; [2]): 407 nM; Kd (HLA-A*02:06; [2]): 3180 nM

Question: With IMDKEQLLKI as the sequence, how does the Kd (HLA-A*02:02; [2]) read?
Answer: 311 nM

Question: What about the Kd (HLA-A*02:03; [2]) of the same sequence?
Answer: 288 nM

Question: What about the Kd (HLA-A*02:06; [2]) of the same sequence?
Answer: 1340 nM

Question: What does the source list for IQKDINITHT?
Answer: Kd (HLA-A*02:02; [2]): 1360 nM; Kd (HLA-A*02:03; [2]): 340 nM; Kd (HLA-A*02:06; [2]): ≥ 61700 nM

Question: For ITHTNITTLL, which Kd (HLA-A*02:02; [2]) is on record?
Answer: 1690 nM

Question: What about the Kd (HLA-A*02:03; [2]) of the same sequence?
Answer: 101 nM

Question: And the Kd (HLA-A*02:06; [2])?
Answer: 14800 nM

Question: Which Kd (HLA-A*02:02; [3]) does the source give for IVDTVSALV here?
Answer: 16.6 nM

Question: And the Kd (HLA-A*02:03; [3])?
Answer: 528 nM

Question: What about the Kd (HLA-A*02:06; [3]) of the same sequence?
Answer: 42.9 nM

Question: For IVFGIYKDNL, which Kd (HLA-A*02:02; [2]) is on record?
Answer: 187 nM

Question: And the Kd (HLA-A*02:03; [2])?
Answer: 792 nM

Question: And the Kd (HLA-A*02:06; [2])?
Answer: 47.8 nM

Question: With IVNSVLLFL as the sequence, how does the Kd (HLA-A*02:02; [3]) read?
Answer: 7.06 nM

Question: And the Kd (HLA-A*02:03; [3])?
Answer: 179 nM

Question: And the Kd (HLA-A*02:06; [3])?
Answer: 30.5 nM

Question: How did the Kd (HLA-A*02:02; [2]) turn out when IVPDIKLDA was run?
Answer: 6390 nM

Question: What about the Kd (HLA-A*02:03; [2]) of the same sequence?
Answer: 15700 nM

Question: What about the Kd (HLA-A*02:06; [2]) of the same sequence?
Answer: 3430 nM

Question: For KIEDLINQLV, which Kd (HLA-A*02:02; [2]) is on record?
Answer: 87 nM

Question: And the Kd (HLA-A*02:03; [2])?
Answer: 70.8 nM

Question: What about the Kd (HLA-A*02:06; [2]) of the same sequence?
Answer: 145 nM

Question: With KILSDENYLL as the sequence, how does the Kd (HLA-A*02:02; [2]) read?
Answer: 25.2 nM

Question: What about the Kd (HLA-A*02:03; [2]) of the same sequence?
Answer: 3770 nM

Question: What about the Kd (HLA-A*02:06; [2]) of the same sequence?
Answer: 15.6 nM

Question: Which results are given for KIMEIVSHL?
Answer: Kd (HLA-A*02:02; [2]): 79 nM; Kd (HLA-A*02:03; [2]): 10.3 nM; Kd (HLA-A*02:06; [2]): 29.7 nM

Question: For KINEMVDEL, which Kd (HLA-A*02:02; [2]) is on record?
Answer: 1.42 nM

Question: What about the Kd (HLA-A*02:03; [2]) of the same sequence?
Answer: 75.6 nM

Question: And the Kd (HLA-A*02:06; [2])?
Answer: 317 nM

Question: KLLNMRDLI was tested. Which Kd (HLA-A*02:02; [2]) did it give?
Answer: 496 nM

Question: What about the Kd (HLA-A*02:03; [2]) of the same sequence?
Answer: 329 nM

Question: What about the Kd (HLA-A*02:06; [2]) of the same sequence?
Answer: 43.8 nM

Question: For KLLSTSNVIT, which Kd (HLA-A*02:02; [2]) is on record?
Answer: 2260 nM

Question: What about the Kd (HLA-A*02:03; [2]) of the same sequence?
Answer: 3350 nM

Question: What about the Kd (HLA-A*02:06; [2]) of the same sequence?
Answer: 1550 nM

Question: KTVKNVDII was tested. Which Kd (HLA-A*02:02; [2]) did it give?
Answer: 607 nM

Question: What about the Kd (HLA-A*02:03; [2]) of the same sequence?
Answer: 1790 nM

Question: What about the Kd (HLA-A*02:06; [2]) of the same sequence?
Answer: 698 nM

Question: For KVTGSYNLV, which Kd (HLA-A*02:02; [2]) is on record?
Answer: 66.3 nM

Question: And the Kd (HLA-A*02:03; [2])?
Answer: 43.1 nM

Question: And the Kd (HLA-A*02:06; [2])?
Answer: 193 nM

Question: Which Kd (HLA-A*02:02; [2]) does the source give for LALKNSQAEL here?
Answer: 741 nM

Question: What about the Kd (HLA-A*02:03; [2]) of the same sequence?
Answer: 333 nM

Question: What about the Kd (HLA-A*02:06; [2]) of the same sequence?
Answer: 1250 nM

Question: LIDFYLCFL was tested. Which Kd (HLA-A*02:02; [3]) did it give?
Answer: 8.31 nM

Question: What about the Kd (HLA-A*02:03; [3]) of the same sequence?
Answer: 61 nM

Question: And the Kd (HLA-A*02:06; [3])?
Answer: 10.9 nM

Question: How did the Kd (HLA-A*02:02; [2]) turn out when LISFFGLFDI was run?
Answer: 75.9 nM

Question: And the Kd (HLA-A*02:03; [2])?
Answer: 108 nM

Question: What about the Kd (HLA-A*02:06; [2]) of the same sequence?
Answer: 171 nM

Question: What does the source list for LLFQLCTFT?
Answer: Kd (HLA-A*02:02; [3]): 22.3 nM; Kd (HLA-A*02:03; [3]): 3.77 nM; Kd (HLA-A*02:06; [3]): 11.1 nM

Question: LLPLTSLVI was tested. Which Kd (HLA-A*02:02; [2]) did it give?
Answer: 2390 nM

Question: What about the Kd (HLA-A*02:03; [2]) of the same sequence?
Answer: 621 nM

Question: And the Kd (HLA-A*02:06; [2])?
Answer: 1430 nM

Question: Which Kd (HLA-A*02:02; [3]) does the source give for LLSAGIFGA here?
Answer: 12.3 nM

Question: What about the Kd (HLA-A*02:03; [3]) of the same sequence?
Answer: 14.9 nM

Question: And the Kd (HLA-A*02:06; [3])?
Answer: 24.6 nM

Question: LMDSIFVSTM was tested. Which Kd (HLA-A*02:02; [2]) did it give?
Answer: 3.65 nM

Question: What about the Kd (HLA-A*02:03; [2]) of the same sequence?
Answer: 8.15 nM

Question: And the Kd (HLA-A*02:06; [2])?
Answer: 610 nM

Question: Which results are given for LNKSDSSWAV?
Answer: Kd (HLA-A*02:02; [4]): 550 nM; Kd (HLA-A*02:03; [4]): 5250 nM; Kd (HLA-A*02:06; [4]): 2190 nM

Question: For LVSDCASTI, which Kd (HLA-A*02:02; [2]) is on record?
Answer: 48.9 nM

Question: What about the Kd (HLA-A*02:03; [2]) of the same sequence?
Answer: 17.2 nM

Question: And the Kd (HLA-A*02:06; [2])?
Answer: 61.3 nM

Question: Which results are given for MIHKTYIDV?
Answer: Kd (HLA-A*02:02; [2]): 1400 nM; Kd (HLA-A*02:03; [2]): 15.2 nM; Kd (HLA-A*02:06; [2]): 126 nM

Question: With MLLNVQTLI as the sequence, how does the Kd (HLA-A*02:02; [2]) read?
Answer: 0.169 nM

Question: And the Kd (HLA-A*02:03; [2])?
Answer: 0.25 nM

Question: What about the Kd (HLA-A*02:06; [2]) of the same sequence?
Answer: 0.219 nM

Question: Which Kd (HLA-A*02:02; [2]) does the source give for MLPESDLDKV here?
Answer: 3.23 nM

Question: What about the Kd (HLA-A*02:03; [2]) of the same sequence?
Answer: 1770 nM

Question: And the Kd (HLA-A*02:06; [2])?
Answer: 4.42 nM

Question: Which results are given for MMNERDVSV?
Answer: Kd (HLA-A*02:02; [2]): 0.441 nM; Kd (HLA-A*02:03; [2]): 0.27 nM; Kd (HLA-A*02:06; [2]): 63.9 nM

Question: What does the source list for NAILHNIYRL?
Answer: Kd (HLA-A*02:02; [2]): 5610 nM; Kd (HLA-A*02:03; [2]): 10200 nM; Kd (HLA-A*02:06; [2]): 576 nM

Question: Which results are given for NASKTINALV?
Answer: Kd (HLA-A*02:02; [2]): 765 nM; Kd (HLA-A*02:03; [2]): 274 nM; Kd (HLA-A*02:06; [2]): 3220 nM

Question: Which Kd (HLA-A*02:02; [2]) does the source give for NIPELKHGLL here?
Answer: 2300 nM

Question: What about the Kd (HLA-A*02:03; [2]) of the same sequence?
Answer: 2690 nM

Question: And the Kd (HLA-A*02:06; [2])?
Answer: 1230 nM

Question: Which Kd (HLA-A*02:02; [2]) does the source give for NQLDSSNKSM here?
Answer: 1780 nM

Question: And the Kd (HLA-A*02:03; [2])?
Answer: ≥ 30000 nM

Question: And the Kd (HLA-A*02:06; [2])?
Answer: 635 nM

Question: How did the Kd (HLA-A*02:02; [2]) turn out when NTFVNFNSV was run?
Answer: 5020 nM

Question: What about the Kd (HLA-A*02:03; [2]) of the same sequence?
Answer: 99.6 nM

Question: What about the Kd (HLA-A*02:06; [2]) of the same sequence?
Answer: 0.346 nM

Question: Which results are given for PASISSVLTI?
Answer: Kd (HLA-A*02:02; [2]): 1360 nM; Kd (HLA-A*02:03; [2]): 83.3 nM; Kd (HLA-A*02:06; [2]): 1550 nM

Question: Which results are given for PLISILMIFI?
Answer: Kd (HLA-A*02:02; [2]): 433 nM; Kd (HLA-A*02:03; [2]): 769 nM; Kd (HLA-A*02:06; [2]): 2420 nM

Question: PTEMVDVSMM was tested. Which Kd (HLA-A*02:02; [2]) did it give?
Answer: 11500 nM

Question: And the Kd (HLA-A*02:03; [2])?
Answer: ≥ 70400 nM

Question: What about the Kd (HLA-A*02:06; [2]) of the same sequence?
Answer: 12100 nM

Question: RASTTENAA was tested. Which Kd (HLA-A*02:02; [2]) did it give?
Answer: ≥ 26700 nM

Question: What about the Kd (HLA-A*02:03; [2]) of the same sequence?
Answer: ≥ 66700 nM

Question: And the Kd (HLA-A*02:06; [2])?
Answer: 12100 nM

Question: Which results are given for SLDQTHIKTI?
Answer: Kd (HLA-A*02:02; [2]): 1430 nM; Kd (HLA-A*02:03; [2]): 14.6 nM; Kd (HLA-A*02:06; [2]): 2460 nM

Question: Which results are given for SLTQVKELGI?
Answer: Kd (HLA-A*02:02; [2]): 9.75 nM; Kd (HLA-A*02:03; [2]): 75.4 nM; Kd (HLA-A*02:06; [2]): 157 nM
